The target in the test is Homo sapiens importin-β (Homo sapiens, UniProt Q14974 1-876). The test is described as follows: partitioning into phase-separated condensates.
Chain of Homo sapiens importin-β (Q14974 whole entry): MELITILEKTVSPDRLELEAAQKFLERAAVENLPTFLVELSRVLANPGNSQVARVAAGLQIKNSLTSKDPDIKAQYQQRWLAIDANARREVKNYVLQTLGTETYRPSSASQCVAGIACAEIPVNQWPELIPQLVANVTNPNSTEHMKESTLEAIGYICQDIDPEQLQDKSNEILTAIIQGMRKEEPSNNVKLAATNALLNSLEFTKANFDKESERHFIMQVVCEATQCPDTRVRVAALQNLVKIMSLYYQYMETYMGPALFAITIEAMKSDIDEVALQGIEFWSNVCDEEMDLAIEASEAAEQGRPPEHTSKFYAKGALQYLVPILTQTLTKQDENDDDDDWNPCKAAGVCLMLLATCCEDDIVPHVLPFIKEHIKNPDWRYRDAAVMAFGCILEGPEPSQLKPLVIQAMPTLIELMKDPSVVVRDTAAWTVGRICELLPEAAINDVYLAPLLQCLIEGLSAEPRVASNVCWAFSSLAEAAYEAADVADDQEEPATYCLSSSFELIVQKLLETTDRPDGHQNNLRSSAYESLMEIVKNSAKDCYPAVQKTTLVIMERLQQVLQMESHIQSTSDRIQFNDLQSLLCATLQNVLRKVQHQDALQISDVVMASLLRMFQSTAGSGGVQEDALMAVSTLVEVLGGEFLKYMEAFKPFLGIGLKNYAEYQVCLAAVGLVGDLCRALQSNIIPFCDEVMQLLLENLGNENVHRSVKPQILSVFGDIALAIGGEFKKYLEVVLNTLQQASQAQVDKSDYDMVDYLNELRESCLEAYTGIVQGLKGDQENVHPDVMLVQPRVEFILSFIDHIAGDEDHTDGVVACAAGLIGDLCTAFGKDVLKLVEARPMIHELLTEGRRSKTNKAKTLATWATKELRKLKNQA

B1: Homo sapiens NUP98 FG domain (residues 1-505, GLEBS domain residues 157-213 excluded) (domain or fragment, UniProt P52948 1-505, looked up)
chain: MFNKSFGTPFGGGTGGFGTTSTFGQNTGFGTTSGGAFGTSAFGSSNNTGGLFGNSQTKPGGLFGTSSFSQPATSTSTGFGFGTSTGTANTLFGTASTGTSLFSSQNNAFAQNKPTGFGNFGTSTSSGGLFGTTNTTSNPFGSTSGSLFGPSSFTAAGPQNQVGAGTTTGLFGSSPATSSATGLFSSSTTNSGFAYGQNKTAFGTSTTGFGTNPGGLFGQQNQQTTSLFSKPFGQATTTQNTGFSFGNTSTIGQPSTNTMGLFGVTQASQPGGLFGTATNTSTGTAFGTGTGLFGQTNTGFGAVGSTLFGNNKLTTFGSSTTSAPSFGTTSGGLFGNKPTLTLGTNTNTSNFGFGTNTSGNSIFGSKPAPGTLGTGLGAGFGTALGAGQASLFGNNQPKIGGPLGTGAFGAPGFNTTTATLGFGAPQAPVALTDPNASAAQQAVLQQHI
As for B1, the binding result is “binds”.

These data come from paper doi:10.64898/2025.12.09.693204 (bioRxiv, 2025).
